From IntAct's records for PubMed 24217340 come the findings set out here.

B1: Suppressor of fused homolog (Homo sapiens), Q9UMX1 (parent)
chain: MAELRPSGAPGPTAPPAPGPTAPPAFASLFPPGLHAIYGECRRLYPDQPNPLQVTAIVKYWLGGPDPLDYVSMYRNVGSPSANIPEHWHYISFGLSDLYGDNRVHEFTGTDGPSGFGFELTFRLKRETGESAPPTWPAELMQGLARYVFQSENTFCSGDHVSWHSPLDNSESRIQHMLLTEDPQMQPVQTPFGVVTFLQIVGVCTEELHSAQQWNGQGILELLRTVPIAGGPWLITDMRRGETIFEIDPHLQERVDKGIETDGSNLSGVSAKCAWDDLSRPPEDDEDSRSICIGTQPRRLSGKDTEQIRETLRRGLEINSKPVLPPINPQRQNGLAHDRAPSRKDSLESDSSTAIIPHELIRTRQLESVHLKFNQESGALIPLCLRGRLLHGRHFTYKSITGDMAITFVSTGVEGAFATEEHPYAAHGPWLQILLTEEFVEKMLEDLEDLTSPEEFKLPKEYSWPEKKLKVSILPDVVFDSPLH
B2: Zinc finger protein GLI2 (Mus musculus), Q0VGT2 (parent)
chain: METSAPAPALEKKEAKSGLLEDSSFPDPGKKACPLAVAAAVAAHGVPQQLLPAFHAPLPIDMRHQEGRYHYDPHSVHSVHGPPTLSGSPVISDISLIRLSPHPAGPGESPFSAHHPYVNPHMEHYLRSVHSSPTLSMISAARGLSPADVAHEHLKERGLFSLAAPGTNPSDYYHQMTLMASHPTPYGDLLMQSGGAASAPHLHDYLNPVDASRFSSPRVTPRLSRKRALSISPLSDASLDLQRMIRTSPNSLVAYINNSRSSSAASGSYGHLSAGALSPAFTFPHPINPVAYQQILSQQRGLGSAFGHTPPLIQPSPTFLAQQPMTLTSISTMPTQLSSSSSNCLNDANQNKQNSESAVSSTVNPITIHKRSKVKTEAEGLRPASPLGLTQEQLADLKEDLDRDDCKQEAEVVIYETNCHWADCTKEYDTQEQLVHHINNEHIHGEKKEFVCRWQACTREQKPFKAQYMLVVHMRRHTGEKPHKCTFEGCSKAYSRLENLKTHLRSHTGEKPYVCEHEGCNKAFSNASDRAKHQNRTHSNEKPYICKIPGCTKRYTDPSSLRKHVKTVHGPDAHVTKKQRNDVHVRAPLLKENGDNEASAEPGGRGPEESVEASSTSHTVEDCLHIKAIKTESSGLCQSSPGAQSSCSSEPSPLGSAPNNDSGMEMPGTGPGSLGDLTALADTCPGADTSALAAPSTGGLQLRKHMSTVHRFEQLKREKLKSLKDSCSWAGPAPHTRNTKLPPLPVNGSVLENFNNTGGGGPAGLLPSQRLPELTEVTMLSQLQERRDSSTSTMSSAYTVSRRSSGISPYFSSRRSSEASPLGGLRPHNASSADSYDPISTDASRRSSEASQCSGGGPGLLNLTPAQQYNLRAKYAAATGGPPPTPLPGLDRVSLRTRLALLDAPERALPGACPHPLGPRRGSDGPTYSHGHGHGYAGAAPAFPHEGPNSSTRRASDPVRRPDPLILPRVQRFHSTHNMNPGSLPPCADRRGLHVQSHPSVDSNLTRNAYSPRPPSINENVVMEAVAAGVDGPGLECDLGLVEDELVLPDDVVQYIKAHTGGTLDDGIRQGYPTEGTGFPENSKLPSPGLQGHRRLAAADSNMGPSAPGLGGCQLSYSPSSNLNKSNMPVQWNEVSSGTVDALPTQVKPPPFPHSNLAVVQQKPAFGQYPGYNPQSVQSSSGGLDSTQPHLQLRGAPSASRGSYTQQPRQPAAGSQCLGMSAAMSPQASYSQAHPQLSPNIVSGSLNQFSPSCSNMAAKPSHLGLPQQMEVVPNATIMNGHQREHGVPNSSLAAVSQPHPVLSYPQQDSYQQGSNLLSSHQPGFMESQQNAGFGLMQPRPPLEPNTASRHRGVRSGQQQLYARTTGQAMVTSANQETAEAMPKGPAGTMVSLAPQPSQDTGRAQDQNTLYYYGQIHMYEQNGGCPAVQPQPPQPQACSDSIQPEPLPSPGVNQVSSTVDSQLLEPPQIDFDAIMDDGDHSSLFSGALSPTLLHNLSQNSSRLTTPRNSLTLPSIPAGISNMAVGDMSSMLTSLAEESKFLNMMT
partner: B1 chain

Variants of B1 are the subject of the first assay. Conditions: with gli1_human GLI1, P08151.
Turning to MAELRPSGAPGPTAPPAPGPTAPPAFASLFPPGLHAIYGECRRLYPDQPNPLQVTAIVKYWLGGPDPLDYVSMYRNVGSPSANIPEHWHYISFGLSDLYGDNRVHEFTGTDGPSGFGFELTFRLKRETGESAPPTWPAELMQGLARRVFQSENTFCSGRHVSWHSPLDNSESRIQHMLLTEDPQMQPVQTPFGVVTFLQIVGVCTEELHSAQQWNGQGILELLRTVPIAGGPWLITDMRRGETIFEIDPHLQERVDKGIETDGSNLSGVSAKCAWDDLSRPPEDDEDSRSICIGTQPRRLSGKDTEQIRETLRRGLEINSKPVLPPINPQRQNGLAHDRAPSRKDSLESDSSTAIIPHELIRTRQLESVHLKFNQESGALIPLCLRGRLLHGRHFTYKSITGDMAITFVSTGVEGAFATEEHPYAAHGPWLQILLTEEFVEKMLEDLEDLTSPEEFKLPKEYSWPEKKLKVSILPDVVFDSPLH [Y147R;D159R], the “effect of a mutation on the interaction” value is “disrupting interaction”.
In the case of MAELRPSGAPGPTAPPAPGPTAPPAFASLFPPGLHAIYGECRRLYPDQPNPLQVTAIVKYWLGGPDPLDYVSMYRNVGSPSANIPEHWHYISFGLSDLYGDNRVHEFTGTDGPSGFGFELTFRLKRETGESAPPTWPAELMQGLARRVFQSENTACSGRHVSWHSPLDNSESRIQHMLLTEDPQMQPVQTPFGVVTFLQIVGVCTEELHSAQQWNGQGILELLRTVPIAGGPWLITDMRRGETIFEIDPHLQERVDKGIETDGSNLSGVSAKCAWDDLSRPPEDDEDSRSICIGTQPRRLSGKDTEQIRETLRRGLEINSKPVLPPINPQRQNGLAHDRAPSRKDSLESDSSTAIIPHELIRTRQLESVHLKFNQESGARIPLCLRGRLLHGRHFTYKSITGDMAITFVSTGVEGAFATEEHPYAAHGPWLQILLTEEFVEKMLEDLEDLTSPEEFKLPKEYSWPEKKLKVSILPDVVFDSPLH [Y147R;F155A;D159R;L380R], the “effect of a mutation on the interaction” value is reported as “disrupting interaction”.
Consider MAELRPSGAPGPTAPPAPGPTAPPAFASLFPPGLHAIYGECRRLYPDQPNPLQVTAIVKYWLGGPDPLDYVSMYRNVGSPSANIPEHWHYISFGLSDLYGDNRVHEFTGTDGPSGFGFELTFRLKRETGESAPPTWPAELMQGLARRVFQSENTACSGAHVSWHSPLDNSESRIQHMLLTEDPQMQPVQTPFGVVTFLQIVGVCTEELHSAQQWNGQGILELLRTVPIAGGPWLITDMRRGETIFEIDPHLQERVDKGIETDGSNLSGVSAKCAWDDLSRPPEDDEDSRSICIGTQPRRLSGKDTEQIRETLRRGLEINSKPVLPPINPQRQNGLAHDRAPSRKDSLESDSSTAIIPHELIRTRQLESVHLKFNQESGARIPLCLRGRLLHGRHFTYKSITGDMAITFVSTGVEGAFATEEHPYAAHGPWLQILLTEEFVEKMLEDLEDLTSPEEFKLPKEYSWPEKKLKVSILPDVVFDSPLH [Y147R;F155A;D159A;L380R], for which the “effect of a mutation on the interaction” value was “disrupting interaction”.

The variants in a further assay derive from B1. Conditions: with gli1_human GLI1, P08151. This is another data set of the same source.
Consider D159R, for which the “effect of a mutation on the interaction” value is on record as “disrupting interaction”.
In the case of MAELRPSGAPGPTAPPAPGPTAPPAFASLFPPGLHAIYGECRRLYPDQPNPLQVTAIVKYWLGGPDPLDYVSMYRNVGSPSANIPEHWHYISFGLSDLYGDNRVHEFTGTDGPSGFGFELTFRLKRETGESAPPTWPAELMQGLARYVFQSENTFCSGAHVSWHSPLDNSESRIQHMLLTEDPQMQPVQTPFGVVTFLQIVGVCTEELHSAQQWNGQGILELLRTVPIAGGPWLITDMRRGETIFEIDPHLQERVDKGIETDGSNLSGVSAKCAWDDLSRPPEDDEDSRSICIGTQPRRLSGKDTEQIRETLRRGLEINSKPVLPPINPQRQNGLAHDRAPSRKDSLESDSSTAIIPHELIRTRQLESVHLKFNQESGALIPLCLRGRLLHGRHFTYKSITGDMAITFVSTGVEGAFATEEHPYAAHGPWLQILLTEEFVEKMLEDLEDLTSPEEFKLPKEYSWPEKKLKVSILPDVVFDSPLH [D159A], the “effect of a mutation on the interaction” value is given as “disrupting interaction”.

The variants in the next assay derive from B1. Particulars: with gli2_mouse Gli2, Q0VGT2.
Regarding D159R, the “effect of a mutation on the interaction” value is reported as “decreasing interaction”.

The next assay covers variants of B1. Particulars: with gli2_mouse Gli2, Q0VGT2. The source holds these as a separate data set.
Consider D159R, for which the “effect of a mutation on the interaction” value is “disrupting interaction”.

Variants of B2 are the subject of the next assay. Conditions: with sufu_human SUFU, Q9UMX1.
As for G270V;H271E;L272D, the “effect of a mutation on the interaction” value is listed as “disrupting interaction”.
Same read-out and setting: with G270A;H271A;L272D the entry was “disrupting interaction”.
